Test [1] concerns the target VEGF. In words: cell-based or functional assay.
Test [2] addresses VEGF. Kind of test: cell-based or functional assay. This is another data set of the same source.
In test [3] the target is T1, recombinant human VEGF165 (human, UniProt P15692-4 27-191).
T1 construct: also called hVEGF165; rhVEGF165
Kind of test: hVEGF165/hVEGFR1-Fc competition ELISA. For orientation: In an ELISA, binding on a coated surface is turned into a signal by an enzyme label.
Target sequence in this assay (P15692 other isoform, or with tags, fused parts or gaps limits assumed): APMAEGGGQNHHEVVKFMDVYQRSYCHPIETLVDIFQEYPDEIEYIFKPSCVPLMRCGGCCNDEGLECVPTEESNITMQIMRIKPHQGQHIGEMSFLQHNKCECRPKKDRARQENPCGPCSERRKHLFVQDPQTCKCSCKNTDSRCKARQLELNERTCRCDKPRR

Test [4] has as its target T1, recombinant human VEGF165. Kind of test: VEGF165/VEGFR2 blocking AlphaScreen.
Target sequence in this assay (P15692 other isoform, or with tags, fused parts or gaps limits assumed): as above
Test [5] addresses T1, recombinant human VEGF165. Kind of test: Biacore on VEGF165 (Example 5.5). The protocol: (§1) Samples are injected for 2 min and allowed to dissociate up to 20 min at a flow rate of 45 μI/min. In between sample injections, the chip surface is regenerated with 100 mM HCl. HBS-EP+(Hepes buffer pH7.4+EDTA) is used as running buffer. Binding curves are fitted using a Two State Reaction model by Biacore T100 Evaluation Software v2.0.1.
Target sequence in this assay (P15692 other isoform, or with tags, fused parts or gaps limits assumed): as above

The target in test [6] is T1, recombinant human VEGF165. In words: ka1; SPR Biacore T100, hVEGF165 on chip, Two State Reaction model. Here is the method: as §1
^{(a)}Heterogeneous binding curve resulting in no 1:1 fit, curves are fitted using a Two State Reaction model by Biacore T100 Evaluation Software v2.0.1
Target sequence in this assay (P15692 other isoform, or with tags, fused parts or gaps limits assumed): as above

For test [7], the target named is T1, recombinant human VEGF165. In words: Biacore, periplasmic extract on hVEGF165 chip.
Target sequence in this assay (P15692 other isoform, or with tags, fused parts or gaps limits assumed): as above
For test [8], the target named is T1, recombinant human VEGF165. Kind of test: Biacore, periplasmic extract on hVEGF165 chip, two phase decay fit. (Surface plasmon resonance follows binding to a sensor surface in real time, without labels.)
Target sequence in this assay (P15692 other isoform, or with tags, fused parts or gaps limits assumed): as above
Test [9] concerns the target T1, recombinant human VEGF165. In words: hVEGF165/hVEGFR2-Fc competition ELISA.
Test [10] has as its target VEGF. Kind of test: cell-based or functional assay. This is another data set of the same source.
Test [11] addresses T1, recombinant human VEGF165. In words: binding ELISA, coated rhVEGF165.
Test [12] concerns the target T1, recombinant human VEGF165. Kind of test: competition AlphaScreen, blocking of hVEGF165 binding to hVEGFR2-Fc.
Test [13] has as its target T1, recombinant human VEGF165. Kind of test: AlphaScreen competition, 0.05 nM hVEGF165 and 0.05 nM hVEGFR1-Fc; blocked: hVEGFR1-Fc.
Test [14] addresses T1, recombinant human VEGF165. In words: AlphaScreen competition, 0.05 nM hVEGF165 and 0.05 nM hVEGFR2-Fc; blocked: hVEGFR2-Fc. In general terms: Bead proximity is the source of the signal in Alpha formats.
For test [15], the target named is T1, recombinant human VEGF165. The test is described as above. This is another data set of the same source.
In test [16] the target is T1, recombinant human VEGF165. In words: competition AlphaScreen, blocking of hVEGF165 binding to hVEGFR2-Fc. This is another data set of the same source.
The target in test [17] is T1, recombinant human VEGF165. In words: AlphaScreen competition, 0.05 nM hVEGF165 and 0.05 nM hVEGFR2-Fc; blocked: hVEGFR2-Fc. This is another data set of the same source.
For test [18], the target named is T1, recombinant human VEGF165. In words: ka1; SPR Biacore T100 on hVEGF165.
The target in test [19] is T1, recombinant human VEGF165. Kind of test: AlphaScreen competition, 0.05 nM hVEGF165 and 0.05 nM hVEGFR2-Fc; blocked: hVEGFR2-Fc. This is another data set of the same source.
Test [20] addresses T1, recombinant human VEGF165. Kind of test: competition AlphaScreen, blocking of hVEGF165 binding to hVEGFR2-Fc. The source holds these as a separate data set.
Test [21] deals with T1, recombinant human VEGF165. In words: AlphaScreen competition, 0.05 nM hVEGF165 and 0.05 nM hVEGFR1-Fc; blocked: hVEGFR1-Fc. The source holds these as a separate data set.
The target in test [22] is T1, recombinant human VEGF165. Kind of test: competition AlphaScreen, blocking of hVEGF165 binding to hVEGFR2-Fc. The source holds these as a separate data set.
Test [23] addresses T1, recombinant human VEGF165. In words: AlphaScreen competition, 0.05 nM hVEGF165 and 0.05 nM hVEGFR2-Fc; blocked: hVEGFR2-Fc. The source holds these as a separate data set.

Where two headings read alike, the source gives them in different places.

B1: VEGFBII23B04 (VHH)
VHH: EVQLVESGGGLVQTGDSLRLSCEVSGRTFSSYSMGWFRQAQGKEREFVVAISKGGYKYDSVSLEGRFTISKDNAKNTVYLQINSLKPEDTAVYYCASSRAYGSSRLRLADTYEYWGQGTQVTVSS
notes: also called VEGFBII23B4; VEGFBII23B04 (wt)
In the case of B1, the “% inhibition, VEGF HUVEC proliferation assay” value in [1] came out at 91%; in [10], 92%. Besides, the results for the “IC50 (nM), VEGF HUVEC proliferation assay” value in test [1] and in [10] were 0.36 nM and 0.68 nM, respectively. Besides, the “IC50 (nM), VEGF HUVEC Erk phosphorylation assay” value in test [2] amounted to 0.37 nM. For the same molecule, the “% inhibition” value in [3] was 64%; in [4], 100%; in test [9] it was 100%. The values for the IC50 in test [3], in test [4] and in [9] were 500 pM, 152 pM and 2100 pM, respectively. Also, the Kd in test [5] came out at 560 pM. Also, the kon in test [6] came out at 210000 M⁻¹ s⁻¹. In addition, the “Binding level (RU)” value in test [7] came out at 768 RU. Besides, in test [8], the “% fast” value is 12%. Also, the EC50 in test [11] is 297 pM.

B2: VEGFBII038 (VHH)
VHH: DVQLVESGGGLVQPGGSLRLSCAASGRTFSSYSMGWFRQAPGKEREFVVAISKGGYKYDAVSLEGRFTISRDNAKNTVYLQINSLRPEDTAVYYCASSRAYGSSRLRLADTYEYWGQGTLVTVSS
notes: also called VEGFBII0038; VEGFBII00038
As to B2, the “IC50 (read off the curve)” value was around 400 pM in [12]; around 800 pM in test [13]; around 500 pM in test [14]; around 400 pM in [15]; around 400 pM in test [16]; around 400 pM in test [17]. In addition, the “IC50 (read off the curve)” value in test [19] is around 400 pM; in [20] it was around 400 pM; in [21], around 500 pM; in test [22], around 400 pM; in test [23] it was around 500 pM. Moreover, the “% inhibition” value in test [4] is 100%. For the same molecule, the half-maximal inhibitory concentration (IC50) in test [4] amounted to 143 pM. Moreover, in [18], the kon is 260000 M⁻¹ s⁻¹. In test [5], the Kd was found to be 360 pM. In addition, the “% inhibition, VEGF HUVEC proliferation assay” value in test [10] was 92%. The “IC50 (nM), VEGF HUVEC proliferation assay” value in [10] was 0.6 nM.

In general, % inhibition refers to the drop in the measured response relative to a control, in per cent. Usually IC50 stands for the midpoint of a concentration-inhibition curve. One may read the Kd as the constant that tells how readily two partners part at equilibrium. The term kon denotes a measure of how fast the partners come together. By EC50 is commonly meant the concentration needed to bring the measured effect to its halfway point.

(Values after patent US20170247475A1 (Boehringer Ingelheim, published 2017).)
